From the DeepSol protein solubility set

Assay: soluble on expression in E. coli; label from the status in PepcDB or PDB records
With “MNDQYHRAARDGYLELLKEATRKELNAPDEDGMTPTLWAAYHGNLESLRLIVSRGGDPDKCDIWGNTPLHLAASNGHLHCLSFLVSFGANIWCLDNDYHTPLDMAAMKGHMECVRYLDSIAAKQSSLNPKLVGKLKDKAFREAERRIRECAKLQRRHHERMERRYRRELAERSDTLSFSSLTSSTLSRRLQHLALGSHLPYSQATLHGTARGKTKMQKKLERRKQGGEGTFKVSEDGRKSARSLSGLQLGSDVMFVRQGTYANPKEWGRAPLRDMFLSDEDSVSRATLAAEPAHSEVSTDSGHDSLFTRPGLGTMVFRRNYLSSGLHGLGREDGGLDGVGAPRGRLQSSPSLDDDSLGSANSLQDRSCGEELPWDELDLGLDEDLEPETSPLETFLASLHMEDFAALLRQEKIDLEALMLCSDLDLRSISVPLGPRKKILGAVRRRRQAMERPPALEDTEL” the “soluble on expression in E. coli” value was “soluble”.
In the case of “MLDLIDSAKESVWIVSPYFVPDEEALAVIRRVAMSGVDVRVIIPGKGDRGISFHGSNAYVKTMIEAGAKMYAYADDSFVHAKAMLVDGTRAAIGTANFDVRSFRLNHELMVFLYDESEAMLHLKRDFKKDFEDSRLFTMKDMENKPLLTRIKEVLSSLLSPIL”, the “soluble on expression in E. coli” value is reported as “not soluble”.
In the case of “MGEENQPNYTISQENWSLHRKGYDDQQRHQEKVQEAIKNNLPDLVTEESIVMSNGKDVVKIPIRSLDEYKIRYNYDKNKHVGQGNGDSKVGDVVARDGSGGQKQKGPGKGQGAGDAAGEDYYEAEVSILELEQAFFRELELPNLKRKEMDENRIEHVEFNDIRKTGLWGNIDKKRTMISAYKRNAMGGKASFHPIHQEDLKFRTWNEVLKPDSKAVVLAMMDTSGSMGIWEKYMARSFFFWMTRFLRTKYETVDIEFIAHHTEAKVVTEEEFFSKGESGGTICSSVYKKALELIDNKYSPDRYNIYPFHFSDGDNLTSDNARCVKLVEELMKKCNMFGYGEVNQYNRHSTLMSAYKNIKDENFRYYILKQKADVFHAMKSFFREESGEKMALEHHHHHH”, the “soluble on expression in E. coli” value is reported as “soluble”.
With “MQQQGWRTYLYDAEQPYTPVASVTGKGESRQVWYYHTDVTGTPQEVTAADGTLVWAGYIKGFGENAADISNSGAYFHQPLRLPGQYFDDETGLHYNLFRYYAPECGRFVSQDPIGLAGGLNLYQYAPNPIRWIDPLGLAILEHQSNFDAARRTGFENAGMTNPEDVTFSKVDPKTGTVVEFKGPNGAKVAYDAPHADMDVTAGHDKPHVGWQSAGKRGSGGANRGNITYDGPQHPHRSDSKGDDKCLEHHHHHH” the “soluble on expression in E. coli” value was “not soluble”.
With “MDMDREQSVQHFLDLIKKSHRGKFKIYIGMIAGVGKSYRMLQEAHELLENGVDVQIGYIETHGRAGTEALMQGLPVIPRRKIFYKGKELEEMDVDAIIRLHPEIVIVDELAHTNVEGSLNEKRWQDVMTLLDEGINVISAINIQHIESVNEEVQEITGIEVKERVPDSVLQEADEVVNIDLTAEELISRLKAGKIYRPEKIQTALDNFFRTENILQLRELALKEVALRVEKKVENEVVMGVSVGIRHEKFMACISSHEKTPRRIIRKAARLATRYNTTFVALYVQTPRESMDRIDLASQRYLLNHFKLVAELGGEVIQVQSKDILGSIVKVCRDKQISSVCMGTPNLRFPHAICSILGYRKFLNNLSQANVDLIILA” the “soluble on expression in E. coli” value was “not soluble”.
For “MFPYFESVATASTEFHAIEPDPHMRRQAAEQANTQATPIHIESSPAEALPYYEDTFDVVITSMVFCTIPDIESAMSEITRVLKPGGELRFFEHVIDDGWRARLQSALAPLWKRLAGGCHLTRQTGTRLVADQSFDVVEIERLNLGITPIRPFVRGRLRKRSVSSTRLEHHHHHH”, the “soluble on expression in E. coli” value was “not soluble”.
With “MGSDKIHHHHHHMSERKPIPKSVKKVLRSEVGFGCPVKGCGNPYLEYHHFDPPVSVKPHNEPEGMIALCAQHHKKADGGAYTIEQLHALKKDKANAKLVRGNLDWLRKDLLAVVGGNFYYETPRIITIDNIDLVSLVRDEDGYLRLNVNMLSLEPDERIIIEENSWENIGSPLDLRSPPQGKELEISYHNGDYLYLRFIELQSFEQAQQRYETDVFKDITFPITAVEVNMTIAGTRIELTPISSQLGGIKMTGCLSSHCGGGVVIQNSGIQWKQNPVWKRKTLVEETEHPNVVKVNFGRR” the “soluble on expression in E. coli” value was “not soluble”.
In the case of “SMTYIPPGESLRDLIEQSQSSGSGSGLPLLVQRTIAKQIQMVKQIGKGRYGEVWMGKWRGEKVAVKVFFTTEEASWFRETEIYQTVLMRHENILGFIAADIKGTGSWTQLYLITDYHENGSLYDYLKSTTLDAKSMLKLAYSSVSGLCHLHTEIFSTQGKPAIAHRDLKSKNILVKKNGTCCIADLGLAVKFISDTNEVDIPPNTRVGTKRYMPPEVLDESLNRNHFQSYIMADMYSFGLILWEVARRCVSGGIVEEYQLPYHDLVPSDPSYEDMREIVCIKKLRPSFPNRWSSDECLRQMGKLMTECWAHNPASRLTALRVKKTLAKMSESQDIKL”, the “soluble on expression in E. coli” value is reported as “soluble”.
For “MSGSHHHHHHSSGIEGRGRLQTRQDVLYLYNWTYYTPTSLIKKFEQQYNVQVVYDDYASNEDMFAKLSIGASGYDLVVPSGDFVSIMKRKHLLEKIDLSKIPNVQFIKESVRARIAYDPKMEYSVPYYLGAAGIAVNKKAVPSYARTWSIFSRKDLAYRMSMMDDMREVMGAALASLGYNVNTKNEQELAQAAILVTDHWKPNLVKFDSDGYAKSFASGDFVVAHGFAEAFFAETPEAMHEHIDFFIPQDVASPVYVDSFCIPKGARNRDLAHAFINFFLEPAHYAEFLDTFGFPSTIHREAAAYQKKTPYYSEHDLERGTLKTDVGAAIEHYNAHWNAVRFR”, the “soluble on expression in E. coli” value was “soluble”.
For “GGSSRHQFDLIMCLKQPGVQTGLLCEKCDGKCPICDSYVRPKRKVRVCENCSFGKQAKNCIICNLNVGVNDAFYCWECCRLGKDKDGCPRILNLGSNRLDRHFEKKKKV”, the “soluble on expression in E. coli” value was “soluble”.
In the case of “MSGKRKLEDYKSIIGEEEVSKIQEKAEKLKGRSFVHVNSTSFGGGVAEILHSLVPLLRSIGIEARWFVIEGPTEFFNVTKTFHNALQGNESLKLTEEMKELYLNVNRENSKFIDLSSFDYVLVHDPQPAALIEFYEKKSPWLWRCHIDLSSPNREFWEFLRRFVEKYDRYIFHLPLEHHHHHH”, the “soluble on expression in E. coli” value is reported as “not soluble”.
In the case of “MKTNTIITIGRQFGSAGREIGYQIADYFGIKLYDKEMLSRAAKESGICEEIFETHDEKPTNSFLYSLVMDTYSMGYSGGSYSDMPINHKVFLAQFDAIKKIADEGPCILVGRCADYALESYDNVVNVFIHADLDARIRRIARIYNLTDAKAKDMIIKTDKKRASYYNYYTNKKWSDSESYELCLSSSELGIEGTAKAIEQYVMLKEQIQRDDKIL”, the “soluble on expression in E. coli” value is reported as “not soluble”.
With “MLDKIIEIIMTILPFLGNRKKRKAMAQDVKEFSELVKDQYTFLMEQLEKVLKDYFDLSARVKEMHTEIFSLREQLAQAATLQCVNKECLQRTQSEASISEA” the “soluble on expression in E. coli” value was “not soluble”.
With “ASTQGISEDLYNRLVEMATISQAAYADLCNIPSTIIKGEKIYNAQTDINGWILRDDTSKEIITVFRGTGSDTNLQLDTNYTLTPFDTLPQCNDCEVHGGYYIGWISVQDQVESLVKQQASQYPDYALTVTGHSLGASMAALTAAQLSATYDNVRLYTFGEPRSGNQAFASYMNDAFQVSSPETTQYFRVTHSNDGIPNLPPAEQGYAHGGVEYWSVDPYSAQNTFVCTGDEVQCCEAQGGQGVNDAHTTYFGMTSGACTW” the “soluble on expression in E. coli” value was “soluble”.
With “MNNSIPERFIFQCALFKNLEREVFMTHGYVDSHIIDQALRLRLKDETSVILSDLYLQILQYIEMHKTTLTDIIINDRESVLSAAALEHHHHHH” the “soluble on expression in E. coli” value was “not soluble”.
With “MGSDKIHHHHHHMKVTNYQGATIDPYSKGLGMVPGTSIQLTDAARLEWNLLNEDVSLPAAVLYADRVEHNLKWMQAFVAEYGVKLAPHGKTTMAPQLFRRQLETGAWGITLATAHQVRAAYHGGVSRVLMANQLVGRRNMMMVAELLSDPEFEFFCLVDSVEGVEQLGEFFKSVNKQLQVLLELGVPGGRTGVRDAAQRNAVLEAITRYPDTLKLAGVELYEGVLKEEHEVREFLQSAVAVTRELVEQERFARAPAVLSGAGSAWYDVVAEEFVKASETGKVEVVLRPGCYLTHDVGIYRKAQTDIFARNPVAKKMGEGLLPALQLWAYVQSIPEPDRAIIGLGKRDSAFDAGMPEPARHYRPGNEAPRDIAASEGWEIFGLMDQHAYLRIPAGADLKVGDMIAFDISHPCLTFDKWRQVLVVDPAYRVTEVIETFF” the “soluble on expression in E. coli” value was “not soluble”.
